Measured values: IntAct's records for PubMed 30017192

Columns and labels:
kpca_human PRKCA = kpca_human PRKCA (UniProt P17252)
kapca_human PRKACA = kapca_human PRKACA (UniProt P17612)

effect of a mutation on the interaction (kpca_human PRKCA): with no effect
effect of a mutation on the interaction (kapca_human PRKACA): with no effect
Substance: Serine/threonine-protein kinase pim-1 (Homo sapiens), P11309-2 K158R
